# Experimental data from patent US20030070184A1, “LIGANDS FOR DISCOIDIN DOMAIN RECEPTOR TYROSINE KINASES AND COMPLEXES THEREOF” (priority 1999, published 2003).
# System: DDR receptors
# Test: Effect of other agents on DDR activity / collagen-induced DDR tyrosine phosphorylation
# Assay type: cell-based
# Settings: collagen-associated molecules
molecule,measurement,value
"decorin: collagen-associated molecule (protein, UniProt P07585 31-359, looked up) Decorin: DEASGIGPEVPDDRDFEPSLGPVCPFRCQCHLRVVQCSDLGLDKVPKDLPPDTTLLDLQNNKITEIKDGDFKNLKNLHALILVNNKISKVSPGAFTPLVKLERLYLSKNQLKELPEKMPKTLQELRAHENEITKVRKVTFNGLNQMIVIELGTNPLKSSGIENGAFQGMKKLSYIRIADTNITSIPQGLPPSLTELHLDGNKISRVDAASLKGLNNLAKLGLSFNSISAVDNGSLANTPHLRELHLDNNKLTRVPGGLAEHKYIQVVYLHNNNISVVGSSDFCPPGHNTKKASYSGVSLFSNPVQYWEIQPSTFRCVYVRSAIQLGNYK",effect on DDR activity,no effect
